Columns and labels:
Assay in all cases: co-IP, anti-FLAG, lysate of cells with N-FLAG B3GNT2; mass spectrometry
[1] = molecular target: ARPC4 (human, UniProt P59998 2-187)
[2] = molecular target: T1, NUFIP2 (human, UniProt Q7Z417 1-695)
T1 construct: also called NP_065823.1
T1 sequence (looked up): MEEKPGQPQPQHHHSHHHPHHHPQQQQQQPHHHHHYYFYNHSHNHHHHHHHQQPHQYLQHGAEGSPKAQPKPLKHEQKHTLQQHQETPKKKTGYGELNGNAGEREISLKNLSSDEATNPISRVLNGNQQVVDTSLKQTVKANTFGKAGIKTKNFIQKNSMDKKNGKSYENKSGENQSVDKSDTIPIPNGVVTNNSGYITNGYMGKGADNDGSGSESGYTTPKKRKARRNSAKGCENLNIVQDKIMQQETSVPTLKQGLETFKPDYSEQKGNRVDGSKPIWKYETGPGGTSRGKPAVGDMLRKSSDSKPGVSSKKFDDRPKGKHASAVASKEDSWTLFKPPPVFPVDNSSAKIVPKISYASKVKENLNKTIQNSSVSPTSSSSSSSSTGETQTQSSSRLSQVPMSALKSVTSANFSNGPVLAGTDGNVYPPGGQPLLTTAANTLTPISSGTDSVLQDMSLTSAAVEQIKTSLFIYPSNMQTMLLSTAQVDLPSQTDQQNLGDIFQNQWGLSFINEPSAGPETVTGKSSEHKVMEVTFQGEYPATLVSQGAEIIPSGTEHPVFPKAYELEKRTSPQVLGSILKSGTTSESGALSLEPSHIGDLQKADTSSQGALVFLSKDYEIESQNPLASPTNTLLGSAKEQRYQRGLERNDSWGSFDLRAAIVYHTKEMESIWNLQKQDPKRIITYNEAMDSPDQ

[3] = molecular target: RPS28 (human, UniProt P62857 1-69)
[4] = molecular target: T2, LMNA (human, UniProt P02545 1-646, limits assumed)
T2 construct: also called NP_733821.1
T2 sequence (looked up): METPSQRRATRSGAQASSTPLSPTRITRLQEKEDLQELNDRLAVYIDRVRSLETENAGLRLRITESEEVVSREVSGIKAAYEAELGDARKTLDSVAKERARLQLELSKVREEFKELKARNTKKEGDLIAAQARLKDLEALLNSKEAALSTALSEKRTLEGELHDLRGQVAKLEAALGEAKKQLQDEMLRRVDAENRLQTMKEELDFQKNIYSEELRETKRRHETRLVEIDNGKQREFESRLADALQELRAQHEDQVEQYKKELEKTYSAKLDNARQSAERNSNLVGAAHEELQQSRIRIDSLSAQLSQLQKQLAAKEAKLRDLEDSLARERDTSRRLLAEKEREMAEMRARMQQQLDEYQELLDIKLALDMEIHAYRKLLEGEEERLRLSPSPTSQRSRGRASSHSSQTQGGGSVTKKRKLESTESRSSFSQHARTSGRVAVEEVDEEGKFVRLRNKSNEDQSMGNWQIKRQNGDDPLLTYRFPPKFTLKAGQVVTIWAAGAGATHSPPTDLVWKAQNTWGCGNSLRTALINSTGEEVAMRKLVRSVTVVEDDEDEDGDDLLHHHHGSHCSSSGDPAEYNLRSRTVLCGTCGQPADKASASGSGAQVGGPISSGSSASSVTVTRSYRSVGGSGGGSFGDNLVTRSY

[5] = molecular target: RPL10 (human, UniProt P27635 2-214)

B1: N-terminal FLAG tagged B3GNT2 (enzyme, human, UniProt Q9NY97 1-397, looked up)
chain: MSVGRRRIKLLGILMMANVFIYFIMEVSKSSSQEKNGKGEVIIPKEKFWKISTPPEAYWNREQEKLNRQYNPILSMLTNQTGEAGRLSNISHLNYCEPDLRVTSVVTGFNNLPDRFKDFLLYLRCRNYSLLIDQPDKCAKKPFLLLAIKSLTPHFARRQAIRESWGQESNAGNQTVVRVFLLGQTPPEDNHPDLSDMLKFESEKHQDILMWNYRDTFFNLSLKEVLFLRWVSTSCPDTEFVFKGDDDVFVNTHHILNYLNSLSKTKAKDLFIGDVIHNAGPHRDKKLKYYIPEVVYSGLYPPYAGGGGFLYSGHLALRLYHITDQVHLYPIDDVYTGMCLQKLGLVPEKHKGFRTFDIEEKNKNNICSYVDLMLVHSRKPQEMIDIWSQLQSAHLKC
notes: Overexpressed in cells and pulled down from the lysate with mouse anti-FLAG antibody; also called N-FLAG B3GNT2; N-term FLAG; not shown: N-terminal FLAG tag
[1]
  co-IP mass spectrometry count: 0
[2]
  co-IP mass spectrometry count: 3
[3]
  co-IP mass spectrometry count: 0
[4]
  co-IP mass spectrometry count: 11
[5]
  co-IP mass spectrometry count: 4

From patent publication US20240261333A1 (published 2024)
